The source of these data is patent US20240294622A1.

The target in this assay is DAN-his (Sinobiological) (human) (UniProt P41271). As to the kind of experiment: blocking ELISA: coated BMP2, antibody pre-incubated with human DAN-his, anti-his HRP; blocked ligand BMP2; fit value of a flat control curve; unit from the axis Concentration(nM). A general note: ELISA stands for enzyme-linked immunosorbent assay.
Chain of DAN-his (Sinobiological) (human) (P41271 17-181 limits assumed): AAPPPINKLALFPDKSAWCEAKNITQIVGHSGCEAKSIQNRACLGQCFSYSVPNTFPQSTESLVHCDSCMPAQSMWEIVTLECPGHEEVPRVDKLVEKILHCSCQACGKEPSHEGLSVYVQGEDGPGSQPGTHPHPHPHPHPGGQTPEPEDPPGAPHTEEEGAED

One may read the IC50 as the concentration that inhibits the measured activity by half. The low end stands for greater potency, the high end for weaker potency. IgG1 (antibody) registered an IC50 of 0.0247 µM.
